B1: Polycystin-2 (Homo sapiens), Q13563-1 (parent)
chain: MVNSSRVQPQQPGDAKRPPAPRAPDPGRLMAGCAAVGASLAAPGGLCEQRGLEIEMQRIRQAAARDPPAGAAASPSPPLSSCSRQAWSRDNPGFEAEEEEEEVEGEEGGMVVEMDVEWRPGSRRSAASSAVSSVGARSRGLGGYHGAGHPSGRRRRREDQGPPCPSPVGGGDPLHRHLPLEGQPPRVAWAERLVRGLRGLWGTRLMEESSTNREKYLKSVLRELVTYLLFLIVLCILTYGMMSSNVYYYTRMMSQLFLDTPVSKTEKTNFKTLSSMEDFWKFTEGSLLDGLYWKMQPSNQTEADNRSFIFYENLLLGVPRIRQLRVRNGSCSIPQDLRDEIKECYDVYSVSSEDRAPFGPRNGTAWIYTSEKDLNGSSHWGIIATYSGAGYYLDLSRTREETAAQVASLKKNVWLDRGTRATFIDFSVYNANINLFCVVRLLVEFPATGGVIPSWQFQPLKLIRYVTTFDFFLAACEIIFCFFIFYYVVEEILEIRIHKLHYFRSFWNCLDVVIVVLSVVAIGINIYRTSNVEVLLQFLEDQNTFPNFEHLAYWQIQFNNIAAVTVFFVWIKLFKFINFNRTMSQLSTTMSRCAKDLFGFAIMFFIIFLAYAQLAYLVFGTQVDDFSTFQECIFTQFRIILGDINFAEIEEANRVLGPIYFTTFVFFMFFILLNMFLAIINDTYSEVKSDLAQQKAEMELSDLIRKGYHKALVKLKLKKNTVDDISESLRQGGGKLNFDELRQDLKGKGHTDAEIEAIFTKYDQDGDQELTEHEHQQMRDDLEKEREDLDLDHSSLPRPMSSRSFPRSLDDSEEDDDEDSGHSSRRRGSISSGVSYEEFQVLVRRVDRMEHSIGSIVSKIDAVIVKLEIMERAKLKRREVLGRLLDGVAEDERLGRDSEIHREQMERLVREELERWESDDAASQISHGLGTPVGLNGQPRPRSSRPSSSQSTEGMEGAGGNGSSNVHV

Variants of: B1
Conditions: with pkd1_human PKD1, P98161
pkd1_human PKD1, P98161, sequence (P98161 whole entry, looked up): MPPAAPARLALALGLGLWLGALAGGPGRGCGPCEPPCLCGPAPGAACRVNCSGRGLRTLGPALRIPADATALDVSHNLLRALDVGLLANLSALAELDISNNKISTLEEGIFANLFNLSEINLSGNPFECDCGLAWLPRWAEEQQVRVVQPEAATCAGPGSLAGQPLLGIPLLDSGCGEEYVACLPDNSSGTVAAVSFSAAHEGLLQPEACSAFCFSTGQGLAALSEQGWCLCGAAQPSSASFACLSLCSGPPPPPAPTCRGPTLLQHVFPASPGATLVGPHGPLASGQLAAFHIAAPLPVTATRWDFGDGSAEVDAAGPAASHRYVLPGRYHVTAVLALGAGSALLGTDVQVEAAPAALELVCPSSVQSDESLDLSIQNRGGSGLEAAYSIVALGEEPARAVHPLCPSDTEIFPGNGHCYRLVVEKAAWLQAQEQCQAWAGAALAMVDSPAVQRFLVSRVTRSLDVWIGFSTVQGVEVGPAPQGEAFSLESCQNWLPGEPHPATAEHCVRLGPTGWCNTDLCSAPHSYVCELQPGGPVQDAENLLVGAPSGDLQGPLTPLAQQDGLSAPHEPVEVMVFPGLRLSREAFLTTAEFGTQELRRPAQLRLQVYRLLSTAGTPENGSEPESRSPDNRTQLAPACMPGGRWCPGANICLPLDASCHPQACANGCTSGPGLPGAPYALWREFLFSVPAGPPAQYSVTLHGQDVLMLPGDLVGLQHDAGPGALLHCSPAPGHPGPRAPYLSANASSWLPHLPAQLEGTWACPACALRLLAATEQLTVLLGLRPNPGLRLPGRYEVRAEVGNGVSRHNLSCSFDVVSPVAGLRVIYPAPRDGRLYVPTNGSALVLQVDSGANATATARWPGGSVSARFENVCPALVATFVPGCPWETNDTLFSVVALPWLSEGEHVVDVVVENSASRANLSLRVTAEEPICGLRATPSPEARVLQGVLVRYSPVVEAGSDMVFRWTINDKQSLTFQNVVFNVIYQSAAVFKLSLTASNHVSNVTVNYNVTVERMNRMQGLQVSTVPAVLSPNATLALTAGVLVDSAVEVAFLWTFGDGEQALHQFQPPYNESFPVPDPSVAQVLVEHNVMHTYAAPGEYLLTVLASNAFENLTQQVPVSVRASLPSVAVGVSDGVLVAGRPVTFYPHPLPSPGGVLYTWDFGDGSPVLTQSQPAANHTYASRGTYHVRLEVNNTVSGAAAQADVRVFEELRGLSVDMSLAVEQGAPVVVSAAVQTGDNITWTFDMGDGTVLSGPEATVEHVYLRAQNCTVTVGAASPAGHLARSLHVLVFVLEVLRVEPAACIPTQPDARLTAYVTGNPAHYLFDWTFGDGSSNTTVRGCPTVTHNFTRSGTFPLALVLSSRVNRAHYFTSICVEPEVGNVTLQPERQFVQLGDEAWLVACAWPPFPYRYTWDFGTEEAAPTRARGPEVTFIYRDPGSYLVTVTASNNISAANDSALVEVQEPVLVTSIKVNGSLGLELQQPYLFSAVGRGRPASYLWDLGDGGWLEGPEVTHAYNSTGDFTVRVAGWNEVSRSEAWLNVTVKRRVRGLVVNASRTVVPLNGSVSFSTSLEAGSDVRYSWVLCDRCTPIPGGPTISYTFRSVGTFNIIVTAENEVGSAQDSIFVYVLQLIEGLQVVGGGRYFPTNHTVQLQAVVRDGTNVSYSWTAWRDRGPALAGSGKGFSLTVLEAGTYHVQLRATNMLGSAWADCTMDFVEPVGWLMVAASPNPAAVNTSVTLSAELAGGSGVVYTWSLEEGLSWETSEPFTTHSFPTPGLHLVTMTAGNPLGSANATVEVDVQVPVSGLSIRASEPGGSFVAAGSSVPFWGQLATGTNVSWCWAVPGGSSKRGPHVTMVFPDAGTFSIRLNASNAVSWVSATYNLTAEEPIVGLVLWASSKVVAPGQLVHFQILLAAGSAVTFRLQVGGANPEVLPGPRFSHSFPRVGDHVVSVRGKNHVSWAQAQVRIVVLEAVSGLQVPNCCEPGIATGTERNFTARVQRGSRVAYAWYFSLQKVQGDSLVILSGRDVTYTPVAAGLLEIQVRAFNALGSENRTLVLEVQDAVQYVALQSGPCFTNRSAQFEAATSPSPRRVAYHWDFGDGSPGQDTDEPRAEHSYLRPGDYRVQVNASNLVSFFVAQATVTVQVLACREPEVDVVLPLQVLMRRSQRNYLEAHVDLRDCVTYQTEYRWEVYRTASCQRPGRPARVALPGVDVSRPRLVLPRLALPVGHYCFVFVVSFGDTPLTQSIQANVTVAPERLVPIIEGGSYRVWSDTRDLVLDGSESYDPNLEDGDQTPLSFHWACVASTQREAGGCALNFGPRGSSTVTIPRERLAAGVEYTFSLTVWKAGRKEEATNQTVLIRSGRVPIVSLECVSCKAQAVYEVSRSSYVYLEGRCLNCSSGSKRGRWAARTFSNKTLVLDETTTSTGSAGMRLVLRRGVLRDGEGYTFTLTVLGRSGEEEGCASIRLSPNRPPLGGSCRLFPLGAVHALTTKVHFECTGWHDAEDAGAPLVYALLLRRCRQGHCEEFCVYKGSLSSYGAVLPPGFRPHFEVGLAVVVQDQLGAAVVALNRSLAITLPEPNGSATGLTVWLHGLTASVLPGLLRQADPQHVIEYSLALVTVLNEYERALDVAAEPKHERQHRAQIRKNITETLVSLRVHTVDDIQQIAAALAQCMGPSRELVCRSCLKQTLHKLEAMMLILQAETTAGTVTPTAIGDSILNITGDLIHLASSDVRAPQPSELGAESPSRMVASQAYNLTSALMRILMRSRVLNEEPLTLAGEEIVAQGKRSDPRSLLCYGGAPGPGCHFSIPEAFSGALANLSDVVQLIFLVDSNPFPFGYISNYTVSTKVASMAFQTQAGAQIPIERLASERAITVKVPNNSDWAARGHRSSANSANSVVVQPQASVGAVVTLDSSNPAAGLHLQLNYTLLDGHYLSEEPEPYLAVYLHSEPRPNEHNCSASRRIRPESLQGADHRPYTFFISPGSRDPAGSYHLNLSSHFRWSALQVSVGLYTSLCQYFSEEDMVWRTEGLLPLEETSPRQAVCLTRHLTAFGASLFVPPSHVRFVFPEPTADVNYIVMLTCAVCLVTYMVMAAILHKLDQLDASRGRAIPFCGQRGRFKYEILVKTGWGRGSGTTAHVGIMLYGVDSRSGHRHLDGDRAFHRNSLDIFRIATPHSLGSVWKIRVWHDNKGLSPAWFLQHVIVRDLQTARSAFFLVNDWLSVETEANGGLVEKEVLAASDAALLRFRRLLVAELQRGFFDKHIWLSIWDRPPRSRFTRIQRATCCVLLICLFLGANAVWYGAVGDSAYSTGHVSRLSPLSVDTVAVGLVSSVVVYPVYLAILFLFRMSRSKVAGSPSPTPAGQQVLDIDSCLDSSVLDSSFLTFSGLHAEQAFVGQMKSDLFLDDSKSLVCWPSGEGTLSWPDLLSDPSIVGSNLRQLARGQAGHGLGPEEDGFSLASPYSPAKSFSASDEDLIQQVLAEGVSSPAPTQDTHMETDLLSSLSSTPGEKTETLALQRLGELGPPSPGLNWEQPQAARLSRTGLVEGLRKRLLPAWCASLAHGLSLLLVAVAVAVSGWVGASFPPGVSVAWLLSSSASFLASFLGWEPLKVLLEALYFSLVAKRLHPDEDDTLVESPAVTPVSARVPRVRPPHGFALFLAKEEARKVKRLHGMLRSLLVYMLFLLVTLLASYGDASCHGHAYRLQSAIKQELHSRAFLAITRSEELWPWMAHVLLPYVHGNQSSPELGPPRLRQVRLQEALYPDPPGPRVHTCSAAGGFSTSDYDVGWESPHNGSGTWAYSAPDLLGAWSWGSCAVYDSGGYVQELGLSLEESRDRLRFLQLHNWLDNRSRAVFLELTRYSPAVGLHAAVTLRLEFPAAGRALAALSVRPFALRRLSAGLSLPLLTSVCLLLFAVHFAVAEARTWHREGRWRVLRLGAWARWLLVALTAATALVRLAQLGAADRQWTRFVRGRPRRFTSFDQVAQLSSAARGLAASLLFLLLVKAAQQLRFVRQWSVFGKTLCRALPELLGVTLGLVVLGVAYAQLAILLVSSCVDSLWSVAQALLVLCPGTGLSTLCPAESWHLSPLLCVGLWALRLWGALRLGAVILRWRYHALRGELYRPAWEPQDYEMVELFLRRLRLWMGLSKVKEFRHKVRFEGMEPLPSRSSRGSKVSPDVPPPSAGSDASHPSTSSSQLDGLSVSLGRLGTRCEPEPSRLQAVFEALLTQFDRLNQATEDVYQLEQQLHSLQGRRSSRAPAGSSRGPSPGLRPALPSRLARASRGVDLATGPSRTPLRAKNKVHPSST

Row | effect of a mutation on the interaction | Variant
1 | disrupting interaction strength | L842A;V846A;M849A;I860A;V863A;L867A
